{"source": "paper PMC7914648", "about": "(Pharmaceuticals, 2021)", "key": {"[1]": {"parameters": "method as in 4 sources, ref 50, 59 = [50]; PMID 12697897; doi:10.1073/pnas.0931245100; 50. Smith R.A.J. Porteous C.M. Gane A.M. Murphy M.P. Delivery of bioactive molecules to mitochondria in vivo Proc. Natl. Acad. Sci. USA 2003 100 5407 5412 10.1073/pnas.0931245100 12697897 PMC154358 || [59]; PMID 23454352; doi:10.1016/j.bbagen.2013.02.005; 59. Porteous C.M. Menon D.K. Aigbirhio F.I. Smith R.A. Murphy M.P. P-glycoprotein (Mdr1a/1b) and breast cancer resistance protein (Bcrp) decrease the uptake of hydrophobic alkyl triphenylphosphonium c ||| ref 59 = [59]; PMID 23454352; doi:10.1016/j.bbagen.2013.02.005; 59. Porteous C.M. Menon D.K. Aigbirhio F.I. Smith R.A. Murphy M.P. P-glycoprotein (Mdr1a/1b) and breast cancer resistance protein (Bcrp) decrease the uptake of hydrophobic alkyl triphenylphosphonium c ||| ref 50 = [50]; PMID 12697897; doi:10.1073/pnas.0931245100; 50. Smith R.A.J. Porteous C.M. Gane A.M. Murphy M.P. Delivery of bioactive molecules to mitochondria in vivo Proc. Natl. Acad. Sci. USA 2003 100 5407 5412 10.1073/pnas.0931245100 12697897 PMC154358 ||| ref 60 = [60]; PMID 31751762; doi:10.1016/j.freeradbiomed.2019.11.021; 60. Pinho B.R. Duarte A.I. Canas P.M. Moreira P.I. Murphy M.P. Oliveira J.M.A. The interplay between redox signalling and proteostasis in neurodegeneration: In vivo effects of a mitochondria-targeted", "settings": "cited from earlier work", "text": "TPP-driven mitochondriotropic compounds are not necessarily excluded from the brain [47, 48, 49, 50]. The literature contains several reports of the use of mitochondria-targeted probes to report on cerebral processes or of mitochondria-tar ..."}, "[2]": {"test": "Tissue distribution of An2-PAPTP and metabolites (liver, spleen, kidneys, heart) after i.v. injection", "format": "in vivo, mouse", "settings": "for metabolite in liver, 15 min: n = 5; for metabolite in heart, 15 min / metabolite in spleen, 15 min: N = 5; for metabolite in kidneys, 15 min, single animal: found in one animal out of five; for metabolite in liver, 30 min: n = 4; for metabolite in liver, 60 min: n = 6", "text": "The total amount of An2-PAPTP and its metabolites, summarized in Table 3, is comprehensive of all the species having the characteristic psoralenic UV spectrum obtained by the overall extraction procedure (i.e., from organic solvent extraction and basic hydrolysis of the remaining pellet), and represents and underestimation of the real concentration in the tissue (see Section 4.7.3). This is because no recovery yield correction was applied, since it was impossible to identify most of the species extracted, and because PAPTPL extracted after high-pH hydrolysis of the pellet could come either from An2-PAPTP or from metabolites. For quantification in HPLC analysis, all the psoralenic species were assumed to have the same molar extinction coefficient as PAPTPL, an assumption justified by the near-identity observed for all the available psoralen-containing molecules.\n(§1) The liver, spleen, kidneys, heart obtained from untreated mice were weighed and homogenized with PBS pH 7.4 (1 vol) with a potter. The pre-established amount of PAPTPL was added into tissue homogenates or blood and, after thorough vortexing, 5 vol of acetone were added and the sample was sonicated for 2 min. Subsequently, 5 vol of ACN containing 0.1% TFA were added and the sample was sonicated for 5 min. The sample was then centrifuged at 12,000× g for 7 min at 4 °C and the supernatant was collected, concentrated with a Hetovac VR-1, and analyzed via HPLC-UV.\nas §1, with “Brain and liver” for “The liver, spleen, kidneys, heart”, “analyte” for “PAPTPL”, “homogenates” for “homogenates or blood”, “trifluoracetic acid (TFA)” for “TFA”\nTo quantify the amount of An2-PAPTP stuck in the tissue, the pellet remaining after the procedure described above was incubated with intermittent Vortexing at 60 °C for 3 h with PBS pH 12.5/ACN 1:1 and then centrifuged at 12,000× g for 7 min. HPLC-UV analysis of the supernatant, measuring PAPTPL hydrolyzed from the tissue, thus indirectly reflects the amount of An2-PAPTPL in the pellet (Scheme 3). Quantification was as described for PAPTPL.\nA stock solution of the peptide-PAPTP conjugates was prepared in DMSO. TAT-PAPTP was administered at 8 and 5 μmol/kg bw and An2-PAPTP only at 5 μmol/kg bw. The calculated quantity of drugs was diluted from the stock solution in saline or mouse plasma to a final volume of 200 μL."}, "[3]": {"test": "fresh mouse blood, withdrawn from the jugular vein and heparinized", "settings": "C57BL mice, 37 °C, up to 4 h"}, "[4]": {"settings": "after An2-PAPTP 5 µmoles/kg bw i.v., mean ± SEM"}, "[5]": {"settings": "after An2-PAPTP 5 µmoles/kg bw i.v., liver, mean ± SEM"}, "[6]": {"settings": "after An2-PAPTP i.v., mean ± SEM"}, "[7]": {"settings": "after An2-PAPTP i.v., kidneys, found in one animal out of four"}, "[8]": {"settings": "after An2-PAPTP 5 µmoles/kg bw i.v., liver, 30 min, mean ± SEM"}, "[9]": {"settings": "after An2-PAPTP i.v., mean ± SEM, N = 4"}, "[10]": {"settings": "after An2-PAPTP i.v., mean ± SEM, N = 6"}}, "note": "“And” between values parts separate entries of the source, which are not always exact repeats. Equal values may be shown once."}
{"compound": "COC1=C(OC)C(=O)C(CCCCCCCCCC[P+](c2ccccc2)(c2ccccc2)c2ccccc2)=C(C)C1=O", "note": "[MitoQ]", "values": [{"measurement": "amount in the brain, R6/2 mice", "setting": "[1]; 500 µM MitoQ in drinking water for 6 weeks, R6/2 mice", "result": "~5", "unit": "pmol/g"}, {"measurement": "amount in the brain, WT mice", "setting": "[1]; 500 µM MitoQ in drinking water for 6 weeks, WT mice", "result": "about 1 pmol/g"}, {"measurement": "steady-state brain radioactivity levels", "setting": "[1]; 10-day administration of 500 µM in drinking water", "result": "~0.15", "unit": "nmol/gr fresh tissue"}, {"measurement": "initial peak concentration in brain tissue", "setting": "[1]; i.v. injection of 100 nmol radiolabelled compound in (WT) mice, scintillation counting", "result": "about 0.05 nmol/gr"}, {"measurement": "Area Under Curve in brain", "setting": "[1]; i.v., wild-type mice", "result": 0.6, "unit": "nmol·h/g wet weight"}]}
{"compound": "CCC(C)C(NC(=O)Oc1ccc(CCCOc2ccc([P+](CCCc3ccc(OCCCCOc4c5ccoc5cc5oc(=O)ccc45)cc3)(c3ccccc3)c3ccccc3)cc2)cc1)C(=O)O.O=C([O-])C(F)(F)F", "note": "(stereo not drawn) [PAPTPL-I, (4-(3-(4-(((1-carboxy-2-methylbutyl)carbamoyl)oxy)phenyl)propoxy)phenyl) (3-(4-(4-((7-oxo-7H-furo[3,2-g]chromen-4-yl)oxy)butoxy)phenyl)propyl)diphenylphosphonium 2,2,2-trifluoroacetate]", "values": [{"measurement": "metabolite in liver, 15 min", "setting": "[2]; after An2-PAPTP 5 µmoles/kg bw i.v. in mouse plasma, liver, HPLC-UV, mean ± SEM", "result": "0.5 ± 0.3", "unit": "nmol/g fresh tissue"}, {"measurement": "metabolite in heart, 15 min", "setting": "[2]; [4]", "result": 0, "unit": "nmol/g fresh tissue"}, {"measurement": "metabolite in liver, 15 min", "setting": "[2]; [5]", "result": "0.4 ± 0.2", "unit": "% administered dose"}, {"measurement": "metabolite in spleen, 15 min", "setting": "[2]; [4]", "result": "0.7 ± 0.3", "unit": "nmol/g fresh tissue"}, {"measurement": "metabolite in heart, 15 min", "setting": "[2]; [6]", "result": 0, "unit": "% administered dose"}, {"measurement": "metabolite in kidneys, 15 min, single animal", "setting": "[2]; after An2-PAPTP i.v., kidneys", "result": "0.32 nmol/g fresh tissue and 0.02 % administered dose"}, {"measurement": "metabolite in kidneys, 30 min, single animal", "setting": "[2]; [7]", "result": "0.32 nmol/g fresh tissue and 0.03 % administered dose"}, {"measurement": "metabolite in liver, 30 min, single animal", "setting": "[2]; after An2-PAPTP i.v., liver, 30 min, found in one animal out of four", "result": "0.2 nmol/g fresh tissue and 0.03 % administered dose"}, {"measurement": "metabolite in spleen, 15 min", "setting": "[2]; [6]", "result": "0.04 ± 0.02", "unit": "% administered dose"}]}
{"compound": "CC[C@H](C)[C@H](NC(=O)Oc1ccc(CCCOc2ccc([P+](CCCc3ccc(OCCCCOc4c5ccoc5cc5oc(=O)ccc45)cc3)(c3ccccc3)c3ccccc3)cc2)cc1)C(=O)N[C@H](C(=O)O)[C@@H](C)O", "note": "[PAPTPL-IT, PAPTPL-isoleucine- threonine]", "values": [{"measurement": "metabolite in heart, 15 min", "setting": "[2]; [4]", "result": 0, "unit": "nmol/g fresh tissue"}, {"measurement": "metabolite in liver, 15 min", "setting": "[2]; [5]", "result": "2.8 ± 1.0", "unit": "% administered dose"}, {"measurement": "metabolite in liver, 30 min", "setting": "[2]; [8]", "result": "2.7 ± 1.8", "unit": "% administered dose"}, {"measurement": "metabolite in liver, 60 min", "setting": "[2]; [5]", "result": "6.2 ± 1.6", "unit": "% administered dose"}, {"measurement": "metabolite in heart, 30 min", "setting": "[2]; [9]", "result": "0.01 ± 0.01", "unit": "% administered dose"}, {"measurement": "metabolite in heart, 15 min", "setting": "[2]; [6]", "result": 0, "unit": "% administered dose"}, {"measurement": "metabolite in kidneys, 15 min, single animal", "setting": "[2]; after An2-PAPTP i.v., kidneys", "result": 0.04, "unit": "% administered dose"}, {"measurement": "metabolite in kidneys, 30 min, single animal", "setting": "[2]; [7]", "result": 0.05, "unit": "% administered dose"}, {"measurement": "metabolite in kidneys, 60 min, single animal", "setting": "[2]; after An2-PAPTP i.v., kidneys, found in one animal out of six", "result": 0.006, "unit": "% administered dose"}, {"measurement": "metabolite in spleen, 30 min", "setting": "[2]; [9]", "result": "0.07 ± 0.04", "unit": "% administered dose"}, {"measurement": "metabolite in spleen, 15 min", "setting": "[2]; [6]", "result": "0.10 ± 0.04", "unit": "% administered dose"}, {"measurement": "metabolite in spleen, 60 min", "setting": "[2]; [10]", "result": "0.07 ± 0.03", "unit": "% administered dose"}]}
{"compound": "CC[C@H](C)[C@H](NC(=O)Oc1ccc(CCCOc2ccc([P+](CCCc3ccc(OCCCCOc4c5ccoc5cc5oc(=O)ccc45)cc3)(c3ccccc3)c3ccccc3)cc2)cc1)C(=O)N[C@H](C(=O)N[C@@H](Cc1ccccc1)C(=O)O)[C@@H](C)O", "note": "[PAPTPL-ITF, PAPTPL-isoleucine-threonine-phenylalanine]", "values": [{"measurement": "metabolite in heart, 15 min", "setting": "[2]; [4]", "result": 0, "unit": "nmol/g fresh tissue"}, {"measurement": "metabolite in liver, 15 min", "setting": "[2]; [5]", "result": "1.7 ± 1.0", "unit": "% administered dose"}, {"measurement": "metabolite in liver, 30 min", "setting": "[2]; [8]", "result": "1.2 ± 0.5", "unit": "% administered dose"}, {"measurement": "metabolite in liver, 60 min", "setting": "[2]; [5]", "result": "3.9 ± 1.0", "unit": "% administered dose"}, {"measurement": "metabolite in heart, 30 min", "setting": "[2]; [9]", "result": "0.008 ± 0.007", "unit": "% administered dose"}, {"measurement": "metabolite in heart, 15 min", "setting": "[2]; [6]", "result": 0, "unit": "% administered dose"}, {"measurement": "metabolite in kidneys, 15 min, single animal", "setting": "[2]; after An2-PAPTP i.v., kidneys", "result": 0.01, "unit": "% administered dose"}, {"measurement": "metabolite in kidneys, 30 min", "setting": "[2]; after An2-PAPTP i.v., kidneys, mean ± SEM, N = 4", "result": "0.12 ± 0.08", "unit": "% administered dose"}, {"measurement": "metabolite in kidneys, 60 min", "setting": "[2]; after An2-PAPTP i.v., kidneys, mean ± SEM, N = 6", "result": "0.02 ± 0.01", "unit": "% administered dose"}, {"measurement": "metabolite in spleen, 30 min", "setting": "[2]; [9]", "result": "0.02 ± 0.01", "unit": "% administered dose"}, {"measurement": "metabolite in spleen, 15 min", "setting": "[2]; [6]", "result": "0.13 ± 0.08", "unit": "% administered dose"}, {"measurement": "metabolite in spleen, 60 min", "setting": "[2]; [10]", "result": "0.08 ± 0.01", "unit": "% administered dose"}]}
{"compound": "HN-IGRKKRRQRRRPPQG-OH", "values": [{"measurement": "cleaved bond", "setting": "[3]", "result": "hydrolysis of the carbamate bond connecting the peptide and PAPTPL"}]}
